Test results: patent publication US20030172388A1 (University of Texas, published 2003)

T1: Bak (UniProt Q16611 1-211, limits assumed)
T1 construct: In vitro translated, [35S]Met-labelled
T1 sequence (looked up): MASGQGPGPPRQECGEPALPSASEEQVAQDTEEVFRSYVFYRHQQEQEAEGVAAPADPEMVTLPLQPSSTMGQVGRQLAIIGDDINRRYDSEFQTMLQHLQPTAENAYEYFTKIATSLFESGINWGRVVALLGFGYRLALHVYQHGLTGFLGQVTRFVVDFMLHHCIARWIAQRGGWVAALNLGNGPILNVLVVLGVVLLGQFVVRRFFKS


Key:
[1] = molecular target: T2, MCL1 (Myeloid Cell Leukemia 1) (UniProt Q07820 1-350, limits assumed); test: in vitro interaction assay with Fortilin deletion mutants
Description: In vitro pull-down assay. Radiolabeled proteins for use in an in vitro binding assay were generated by a TNT Quick Coupled Transcription/Translation System (Promega, Madison, Wis.) according to the manufacturer's instructions, using [³⁵S]methionine (Amersham-Pharmacia, Piscataway, N.J.) as labeling agent. DNA templates were either circular plasmids or gel-purified PCR products containing a T7 RNA polymerase promoter. The in vitro translated, influenza hemagglutinin-tagged Fortilin (Fortilin-HA) or its mutants and another in vitro translated protein namely, MCL1, Bcl-xL, Bak, Bax or PCNA, were added to Buffer A (50 mM HEPES, pH 7.5, 70 mM KCl, 0.5 mM ATP, 5 mM MgSO₄, 1 mM DTT, 0.001% NP-40, 50 μM MG132, 2 μg/mL BSA, 2 μg/mL aporotinin, 0.5 mM PMSF and protease inhibitor cocktail [Sigma]), and allowed to form complexes at 4° C. for 90 minutes. Fortilin-HA or its mutants were then pulled down with rat anti-HA antibody (Clone 3F10; Roche Molecular Biochemicals, Indianapolis, Ind.) and sheep anti-rat polyclonal antibody conjugated to Dynabeads™ (M480; Dynal USA, Lake Success, N.Y.). Immune complexes were then washed 5 times with Buffer A and once with Buffer B (Buffer A supplemented with 0.01% NP-40). […]

[2] = molecular target: T2, MCL1 (Myeloid Cell Leukemia 1); test: in vitro pull-down with anti-HA antibody and Dynabeads, [35S]-labelled proteins
Description: (§1) In vitro pull-down assay. Radiolabeled proteins for use in an in vitro binding assay were generated by a TNT Quick Coupled Transcription/Translation System (Promega, Madison, Wis.) according to the manufacturer's instructions, using [³⁵S]methionine (Amersham-Pharmacia, Piscataway, N.J.) as labeling agent. DNA templates were either circular plasmids or gel-purified PCR products containing a T7 RNA polymerase promoter. The in vitro translated, influenza hemagglutinin-tagged Fortilin (Fortilin-HA) or its mutants and another in vitro translated protein namely, MCL1, Bcl-xL, Bak, Bax or PCNA, were added to Buffer A (50 mM HEPES, pH 7.5, 70 mM KCl, 0.5 mM ATP, 5 mM MgSO₄, 1 mM DTT, 0.001% NP-40, 50 μM MG132, 2 μg/mL BSA, 2 μg/mL aporotinin, 0.5 mM PMSF and protease inhibitor cocktail [Sigma]), and allowed to form complexes at 4° C. for 90 minutes. Fortilin-HA or its mutants were then pulled down with rat anti-HA antibody (Clone 3F10; Roche Molecular Biochemicals, Indianapolis, Ind.) and sheep anti-rat polyclonal antibody conjugated to Dynabeads™ (M480; Dynal USA, Lake Success, N.Y.). Immune complexes were then washed 5 times with Buffer A and once with Buffer B (Buffer A supplemented with 0.01% NP-40). Finally, precipitated proteins were eluted into SDS gel loading buffer (50 mM Tris-Cl, pH 6.8, 100 mM DTT, 2% SDS, 0.1% bromophenol blue, and 10% glycerol), boiled for 5 minutes, subjected to 12% SDS-polyacrylamide gel electrophoresis (SDS-PAGE) and visualized by fluorography and imaging with a phosphoimager system (Bio-Rad, Hercules, Calif.).

PCNA = molecular target: T3, PCNA (UniProt P12004 1-261, limits assumed); test: as above
T3 construct: In vitro translated, [35S]Met-labelled
Description: as §1

Bax = molecular target: T4, Bax (UniProt Q07812 1-192, limits assumed); test: as above
T4 construct: In vitro translated, [35S]Met-labelled
Description: as §1

Bak = molecular target: T1, Bak; test: as above
Description: as §1

T2 sequence (Q07820 whole entry): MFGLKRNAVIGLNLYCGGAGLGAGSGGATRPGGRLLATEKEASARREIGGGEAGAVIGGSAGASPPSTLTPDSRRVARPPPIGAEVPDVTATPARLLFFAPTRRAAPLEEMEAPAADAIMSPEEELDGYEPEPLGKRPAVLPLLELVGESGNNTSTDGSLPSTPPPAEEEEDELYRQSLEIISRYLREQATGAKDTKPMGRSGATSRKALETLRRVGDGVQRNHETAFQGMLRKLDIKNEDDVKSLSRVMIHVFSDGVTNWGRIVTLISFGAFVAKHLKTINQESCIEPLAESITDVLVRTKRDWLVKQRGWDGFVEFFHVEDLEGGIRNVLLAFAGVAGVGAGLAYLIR
T3 sequence (P12004 whole entry): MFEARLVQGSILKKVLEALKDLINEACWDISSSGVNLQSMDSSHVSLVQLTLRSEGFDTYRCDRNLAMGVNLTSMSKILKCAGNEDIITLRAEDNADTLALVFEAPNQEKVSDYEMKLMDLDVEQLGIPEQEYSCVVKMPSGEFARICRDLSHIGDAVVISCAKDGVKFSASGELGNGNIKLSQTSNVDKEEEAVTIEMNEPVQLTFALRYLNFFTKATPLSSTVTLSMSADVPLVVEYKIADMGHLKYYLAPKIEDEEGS
T4 sequence (Q07812 whole entry): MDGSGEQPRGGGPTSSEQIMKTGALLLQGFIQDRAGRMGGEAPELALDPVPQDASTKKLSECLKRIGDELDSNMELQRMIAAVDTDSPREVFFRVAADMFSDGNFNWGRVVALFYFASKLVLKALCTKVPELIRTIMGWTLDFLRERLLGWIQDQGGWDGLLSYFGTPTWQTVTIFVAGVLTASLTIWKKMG

| Binder | binding result [1] | binding result [2] | binding result (PCNA) | binding result (Bax) | binding result (Bak) |
| --- | --- | --- | --- | --- | --- |
| HA-tagged Fortilin deletion mutant, amino acids 23-172 (other, not shown: small tags and cut ends, Any added start methionine is not described) IADGLCLEVEGKMVSRTEGNIDDSLIGGNASAEGPEGEGTESTVITGVDIVMNHHLQETSFTKEAYKKYIKDYMKSIKGKLEEQRPERVKPFMTGAAEQIKHILANFKNYQFFIGENMNPDGMVALLDYREDGVTPYMIFFKDGLEMEKC | no binding |  |  |  |  |
| HA-tagged Fortilin deletion mutant, amino acids 5-172 (other, not shown: small tags and cut ends, Any added start methionine is not described) RDLISHDEMFSDIYKIREIADGLCLEVEGKMVSRTEGNIDDSLIGGNASAEGPEGEGTESTVITGVDIVMNHHLQETSFTKEAYKKYIKDYMKSIKGKLEEQRPERVKPFMTGAAEQIKHILANFKNYQFFIGENMNPDGMVALLDYREDGVTPYMIFFKDGLEMEKC |  | binds |  |  |  |
| HA-tagged Fortilin deletion mutant, amino acids 46-172 (other, not shown: small tags and cut ends, Any added start methionine is not described) SLIGGNASAEGPEGEGTESTVITGVDIVMNHHLQETSFTKEAYKKYIKDYMKSIKGKLEEQRPERVKPFMTGAAEQIKHILANFKNYQFFIGENMNPDGMVALLDYREDGVTPYMIFFKDGLEMEKC | no binding |  |  |  |  |
| influenza hemagglutinin-tagged Fortilin (Fortilin-HA), full-length, amino acids 1-172 (other, not shown: small tags and cut ends, also called wild type Fortilin; wild-type fortilin) MIIYRDLISHDEMFSDIYKIREIADGLCLEVEGKMVSRTEGNIDDSLIGGNASAEGPEGEGTESTVITGVDIVMNHHLQETSFTKEAYKKYIKDYMKSIKGKLEEQRPERVKPFMTGAAEQIKHILANFKNYQFFIGENMNPDGMVALLDYREDGVTPYMIFFKDGLEMEKC |  | binds | no binding | no binding | no binding |
